This note sets out measurements from paper PMC10881965, “Structural optimization of siRNA conjugates for albumin binding achieves effective MCL1-directed cancer therapy”.

This series addresses human serum albumin (Homo sapiens, UniProt P02768 25-609). Description: BLI; EMSA: 0.1 nmol siRNA conjugate, 5x molar excess albumin, 30 min at 37 C, 4-20% TGX gel; BLI: albumin 400 nM (or varied), buffer not in material. (In general: BLI is a label-free optical method that tracks binding on a fibre tip over time.)

In general, Kd refers to a measure of binding affinity in units of concentration. Read a low Kd as tighter binding.

human serum albumin, sequence (P02768 25-609): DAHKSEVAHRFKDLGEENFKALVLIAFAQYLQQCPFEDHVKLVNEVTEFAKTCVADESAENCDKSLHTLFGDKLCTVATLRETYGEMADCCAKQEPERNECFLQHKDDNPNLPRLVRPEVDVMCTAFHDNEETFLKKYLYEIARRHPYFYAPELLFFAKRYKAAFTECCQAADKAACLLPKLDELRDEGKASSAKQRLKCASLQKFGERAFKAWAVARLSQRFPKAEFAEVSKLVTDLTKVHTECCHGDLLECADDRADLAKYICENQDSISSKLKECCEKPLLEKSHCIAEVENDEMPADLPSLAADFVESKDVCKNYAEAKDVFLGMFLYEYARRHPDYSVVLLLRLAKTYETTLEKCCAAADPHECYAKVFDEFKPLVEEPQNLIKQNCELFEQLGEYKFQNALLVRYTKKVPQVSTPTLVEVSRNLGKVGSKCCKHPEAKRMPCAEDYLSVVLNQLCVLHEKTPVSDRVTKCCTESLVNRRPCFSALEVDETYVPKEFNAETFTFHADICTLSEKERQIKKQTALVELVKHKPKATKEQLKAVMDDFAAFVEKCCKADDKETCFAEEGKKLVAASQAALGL

B1: si<(EG30L)2 (dsRNA)
RNA 1: CAAUUGCACUGAUAAUGAA
RNA 2: UUCAUUAUCAGUGCAAUUG
modifications: 2'-F/2'-OMe, PS; 5' sense divalent stearyl, 30 EG per arm
B1 registered a Kd of 9.49 ± 0.1 nM.

B2: si<(EG18L)2 (dsRNA)
RNA 1: CAAUUGCACUGAUAAUGAA
RNA 2: UUCAUUAUCAGUGCAAUUG
modifications: 2'-F/2'-OMe, PS; 5' sense divalent stearyl, 18 EG per arm, proximal branch
Consider B2, for which the Kd was found to be 30 ± 0.3 nM.
